Laboratory results published in patent US20220315661A1 (Genmab, published 2022).
Where “and” joins values, the source holds several entries; their conditions need not be identical. Equal entries are not always repeated.

Key:
[1] = target: T1, kDR5ECDdelHis (human); experiment: Bio-Layer Interferometry (Octet HTX), antibody on AHC biosensor, kDR5ECDdelHis in solution, n = 2
T1 construct: DR5ECDdelHis in which the DR5 signal peptide (aa 1-57) is replaced by that of Kappa 2F8; C-terminal His tag; also called soluble recombinant extracellular domain of human DR5; human recombinant DR5
T1 chain: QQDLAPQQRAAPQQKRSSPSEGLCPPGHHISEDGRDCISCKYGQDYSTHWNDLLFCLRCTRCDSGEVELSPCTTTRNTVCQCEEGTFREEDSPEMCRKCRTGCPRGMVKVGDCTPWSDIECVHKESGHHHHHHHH

[2] = target: T2, Murine DR5 (mouse, UniProt Q9QZM4 53-381, limits assumed); experiment: flow cytometry (FIG. 3D)
T2 construct: also called mouse DR5; Murine DRS (Uniprot Q9QZM4)

[3] = target: T1, kDR5ECDdelHis; experiment: Bio-Layer Interferometry (Octet HTX), antibody on AHC biosensor, kDR5ECDdelHis in solution, n = 3
[4] = target: DR5sh79-115ECDdel-FcRbHisCtag (human, with aa 79-115 replaced by the …); experiment: ELISA, DR5 fusion protein captured by penta-his antibody
[5] = target: T3, DR5sh139-166ECDdel-FcRbHisCtag (human, with aa 139-166 replaced by the …); experiment: ELISA, DR5 fusion protein captured on a penta-His antibody coat, detection with HRP goat anti-human IgG F(ab')2, OD 405 nm
T3 chain: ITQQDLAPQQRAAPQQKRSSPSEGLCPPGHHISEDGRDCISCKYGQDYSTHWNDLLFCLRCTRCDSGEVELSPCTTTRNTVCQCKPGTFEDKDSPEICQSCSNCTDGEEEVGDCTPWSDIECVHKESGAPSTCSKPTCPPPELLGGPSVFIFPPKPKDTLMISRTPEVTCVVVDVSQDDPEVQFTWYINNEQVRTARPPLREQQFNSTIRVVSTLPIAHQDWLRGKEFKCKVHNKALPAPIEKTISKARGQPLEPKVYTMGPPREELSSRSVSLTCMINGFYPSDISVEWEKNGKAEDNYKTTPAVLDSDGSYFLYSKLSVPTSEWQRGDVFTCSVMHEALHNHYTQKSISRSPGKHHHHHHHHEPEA

[6] = target: T4, Cyno DR5Mfdel-K420N (cynomolgus monkey DR5 with deletion of aa 185-213 and K420N), expressed on CHO-S cells (cynomolgus monkey); experiment: flow cytometry on CHO-S cells expressing cynomolgus monkey DR5, average n = 4 (SD)
T4 construct: includes the signal peptide; also called CHO-S cells expressing cynomolgus monkey DR5
T4 chain: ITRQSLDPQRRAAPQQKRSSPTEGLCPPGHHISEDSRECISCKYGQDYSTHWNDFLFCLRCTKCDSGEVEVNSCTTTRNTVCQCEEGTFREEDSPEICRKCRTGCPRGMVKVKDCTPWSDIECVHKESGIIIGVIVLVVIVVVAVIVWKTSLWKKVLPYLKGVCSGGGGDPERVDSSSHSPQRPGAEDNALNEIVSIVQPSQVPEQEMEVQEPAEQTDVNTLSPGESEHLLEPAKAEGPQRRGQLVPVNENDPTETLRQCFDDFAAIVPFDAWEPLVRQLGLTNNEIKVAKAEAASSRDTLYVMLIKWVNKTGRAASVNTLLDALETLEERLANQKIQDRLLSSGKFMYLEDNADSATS

[7] = target: T5, DR5ECD-FcRbHisCtag (human); experiment: ELISA, DR5 fusion protein captured on a penta-His antibody coat, detection with HRP goat anti-human IgG F(ab')2, OD 405 nm
T5 construct: also called fully human DR5 antigen; extracellular domain of human DR5 natural variant P32L

T2 sequence (Q9QZM4 53-381 limits assumed): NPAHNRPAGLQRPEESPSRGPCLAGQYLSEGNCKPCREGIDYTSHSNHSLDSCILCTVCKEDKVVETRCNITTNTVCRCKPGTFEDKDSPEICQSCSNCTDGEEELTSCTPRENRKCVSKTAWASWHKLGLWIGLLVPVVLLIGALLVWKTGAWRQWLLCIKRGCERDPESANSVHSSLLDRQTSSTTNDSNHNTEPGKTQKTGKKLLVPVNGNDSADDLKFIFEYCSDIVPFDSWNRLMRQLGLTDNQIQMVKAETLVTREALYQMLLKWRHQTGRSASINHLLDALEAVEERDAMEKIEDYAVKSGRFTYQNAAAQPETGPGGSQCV

B1: IgG1-hDR5-05 (antibody)
heavy: not shown
light: DIQLTQSPSSLSASVGDRVTITCSASSSVSYMYWYQQKPGKAPKPWIYRTSNLASGVPSRFSGSGSGTDFTLTISSLQPEDFATYYCQQYHSYPPTFGGGTKVEIKRTVAAPSVFIFPPSDEQLKSGTASVVCLLNNFYPREAKVQWKVDNALQSGNSQESVTEQDSKDSTYSLSSTLTLSKADYEKHKVYACEVTHQGLSSPVTKSFNRGEC
notes: Humanized IgG1,kappa without the E430G mutation; also called WT counterpart of IgG1-hDR5-05-E430G
Kd [1]: 28.5 nM

B2: IgG1-hDR5-05-F405L (antibody)
heavy: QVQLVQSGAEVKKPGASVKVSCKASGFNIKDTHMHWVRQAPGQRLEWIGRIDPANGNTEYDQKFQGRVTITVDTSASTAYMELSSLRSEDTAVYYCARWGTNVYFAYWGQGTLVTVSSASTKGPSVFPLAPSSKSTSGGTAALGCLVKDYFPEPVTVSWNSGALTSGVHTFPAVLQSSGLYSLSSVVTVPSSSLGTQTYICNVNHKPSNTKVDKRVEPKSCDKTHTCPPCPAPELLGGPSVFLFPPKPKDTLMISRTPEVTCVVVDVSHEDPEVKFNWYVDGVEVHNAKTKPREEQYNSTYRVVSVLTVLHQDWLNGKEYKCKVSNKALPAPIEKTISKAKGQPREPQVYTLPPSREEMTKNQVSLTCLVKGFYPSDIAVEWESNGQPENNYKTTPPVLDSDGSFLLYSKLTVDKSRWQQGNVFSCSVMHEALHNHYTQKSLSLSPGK
light: DIQLTQSPSSLSASVGDRVTITCSASSSVSYMYWYQQKPGKAPKPWIYRTSNLASGVPSRFSGSGSGTDFTLTISSLQPEDFATYYCQQYHSYPPTFGGGTKVEIKRTVAAPSVFIFPPSDEQLKSGTASVVCLLNNFYPREAKVQWKVDNALQSGNSQESVTEQDSKDSTYSLSSTLTLSKADYEKHKVYACEVTHQGLSSPVTKSFNRGEC
notes: Humanized IgG1,kappa with F405L; also called HC hDR5-05-F405L / LC hDR5-05
binding result [2]: no binding

B3: IgG1-hDR5-05-E430G (antibody)
heavy: not shown
light: DIQLTQSPSSLSASVGDRVTITCSASSSVSYMYWYQQKPGKAPKPWIYRTSNLASGVPSRFSGSGSGTDFTLTISSLQPEDFATYYCQQYHSYPPTFGGGTKVEIKRTVAAPSVFIFPPSDEQLKSGTASVVCLLNNFYPREAKVQWKVDNALQSGNSQESVTEQDSKDSTYSLSSTLTLSKADYEKHKVYACEVTHQGLSSPVTKSFNRGEC
notes: Humanized IgG1,kappa with E430G (Eu numbering); also called IgG1-DR5-05-E430G; HC hDR5-05-E430G / LC hDR5-05
Kd [3]: 27.1 nM
binding result [4]: no binding (tested: range 0.46-1,000 ng/mL)
EC50 (read off the curve) [5]: ~0.02 µg/mL
EC50 [6]: 0.17 µg/mL and 1.16 nM
EC50 (read off the curve) [7]: ~0.02 µg/mL
